In assay [1] the target is uridine-specific nidoviral endoribonuclease (NendoU) protein from SARS-CoV-2 (SARS-CoV-2). The experiment in a line: SEC.
Assay [2] has the same target. The experiment in a line: dynamic light scattering.

On to “uridine-specific nidoviral endoribonuclease (NendoU) protein from SARS-CoV-2 (enzyme)”, for which the stoichiometry N in assay [1] and in assay [2] was 6 throughout.

These data come from paper PMC9830665.
